In patent publication US20210095300, “INTERFERING WITH HD-ZIP TRANSCRIPTION FACTOR REPRESSION OF GENE EXPRESSION TO PRODUCE PLANTS WITH ENHANCED TRAITS” (Monsanto Technology LLC, published 2021):

Legend:
[1] = molecular target: T1, ATHB17Δ113-T196A-L203A-L210A-L217A-L224A (Arabidopsis thaliana, UniProt Q8S9N6 SEQ:1-162); test: SPR; leucine zipper mutant
T1 chain: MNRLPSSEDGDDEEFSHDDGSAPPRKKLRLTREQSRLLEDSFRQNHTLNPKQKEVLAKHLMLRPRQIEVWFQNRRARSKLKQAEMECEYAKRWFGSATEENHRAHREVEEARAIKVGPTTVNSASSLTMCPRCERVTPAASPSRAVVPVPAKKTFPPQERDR

ATHB17Δ113-R190K [2] = molecular target: T2, ATHB17Δ113-R190K (Arabidopsis thaliana, UniProt Q8S9N6 SEQ:1-162, R190K (full-length numbering)); test: SPR; reduced affinity to BS2; conditions: chain copies: 2 (homodimer, inferred)
T2 sequence: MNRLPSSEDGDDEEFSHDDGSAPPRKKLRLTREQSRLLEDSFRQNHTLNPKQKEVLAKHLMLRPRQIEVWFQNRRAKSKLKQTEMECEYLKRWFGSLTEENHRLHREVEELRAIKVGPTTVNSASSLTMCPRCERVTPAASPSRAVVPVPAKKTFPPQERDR

[3] = molecular target: T3, ATHB17Δ113-C200A-C243S-C246S (Arabidopsis thaliana, UniProt Q8S9N6 SEQ:1-162); test: SPR
T3 chain: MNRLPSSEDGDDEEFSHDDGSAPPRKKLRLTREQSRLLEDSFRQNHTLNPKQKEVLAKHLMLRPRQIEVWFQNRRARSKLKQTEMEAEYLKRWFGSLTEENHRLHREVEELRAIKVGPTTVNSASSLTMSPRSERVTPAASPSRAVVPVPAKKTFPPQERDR
Source text: (§1) HD-Zip I and II proteins bind to similar cis elements (CAAT(N)ATTG) under in vitro conditions (Sessa et al., EMBO J 12:3507-3517, 1993); Meijer et al., Mol Gen Genet 263:12-21, 2000); Frank et al., Plant J Cell Molec Biol 15:413-421, 1998); Deng et al., Plant Mol Biol 49:601-610, 2002). HD-Zip II members bind preferentially to the pseudo-palindromic sequence CAAT(C/G)ATTG (SEQ ID NO:55) (Sessa et al., EMBO J 12:3507-3517, 1993), whereas members of the HD-Zip I subfamily bind preferentially to a pseudo-palindromic sequence that differs from that of HD-Zip II at the central nucleotide (CAAT(A/T)ATTG) (SEQ ID NO:56) (Ariel et al., Trends Plant Sci 12:419-426, 2007). The DNA-binding properties of ATHB17Δ113 was tested in vitro using a surface plasmon resonance (SPR) assay for both class I and class II recognition sequences. The oligonucleotides used in this assay were […] (Class II), […] (Class I), and […] (non consensus), where the pseudo-palindromic sequences flanked by four nucleotides at the 5′ end and 3′end of the oligo are underlined.
(§2) ATHB17 amino acid substitutions and domain deletions were generated by comparing the ATHB17 protein sequence with those of mammalian HD and other plant HD-Zip transcription factors. These variants were evaluated for their DNA binding properties using SPR on Biacore 2000 as described in Example 2.

ATHB17Δ113-C246S [4] = molecular target: T4, ATHB17Δ113-C246S (Arabidopsis thaliana, UniProt Q8S9N6 SEQ:1-162); test: SPR; conditions: chain copies: 2 (homodimer, inferred)
T4 chain: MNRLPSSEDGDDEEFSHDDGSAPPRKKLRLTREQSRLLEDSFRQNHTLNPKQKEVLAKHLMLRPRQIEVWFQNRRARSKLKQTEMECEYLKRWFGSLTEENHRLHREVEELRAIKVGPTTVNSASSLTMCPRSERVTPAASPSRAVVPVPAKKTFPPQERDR
Source text: as §1, §2

ATHB17Δ113-C243S [5] = molecular target: T5, ATHB17Δ113-C243S (Arabidopsis thaliana, UniProt Q8S9N6 SEQ:1-162); test: SPR; conditions: chain copies: 2 (homodimer, inferred)
T5 chain: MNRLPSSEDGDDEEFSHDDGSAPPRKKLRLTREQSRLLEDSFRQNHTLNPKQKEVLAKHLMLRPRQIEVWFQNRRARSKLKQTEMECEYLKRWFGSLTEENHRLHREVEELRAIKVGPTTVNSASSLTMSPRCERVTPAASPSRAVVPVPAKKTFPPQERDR
Source text: as §1, §2

ATHB17Δ113-C243S-C246S [6] = molecular target: T6, ATHB17Δ113-C243S-C246S (Arabidopsis thaliana, UniProt Q8S9N6 SEQ:1-162); test: SPR; conditions: chain copies: 2 (homodimer, inferred)
T6 chain: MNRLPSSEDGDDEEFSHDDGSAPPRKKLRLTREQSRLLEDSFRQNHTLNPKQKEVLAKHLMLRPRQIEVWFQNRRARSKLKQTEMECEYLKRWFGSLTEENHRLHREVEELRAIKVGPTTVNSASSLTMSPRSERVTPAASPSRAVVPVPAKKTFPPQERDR
Source text: as §1, §2

ATHB17Δ113-F155L [7] = molecular target: T7, ATHB17Δ113-F155L (Arabidopsis thaliana, UniProt Q8S9N6 SEQ:1-162); test: SPR; conditions: chain copies: 2 (homodimer, inferred)
T7 chain: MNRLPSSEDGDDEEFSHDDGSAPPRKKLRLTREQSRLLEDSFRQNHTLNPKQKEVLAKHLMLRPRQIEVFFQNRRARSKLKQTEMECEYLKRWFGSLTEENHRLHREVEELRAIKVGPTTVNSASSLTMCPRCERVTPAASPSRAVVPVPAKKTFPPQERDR
Source text: as §1, §2

[8] = molecular target: T8, ATHB17Δ113-V182A-Q185A-N186A (Arabidopsis thaliana, UniProt Q8S9N6 SEQ:1-162); test: SPR; no binding within the concentration range used
T8 chain: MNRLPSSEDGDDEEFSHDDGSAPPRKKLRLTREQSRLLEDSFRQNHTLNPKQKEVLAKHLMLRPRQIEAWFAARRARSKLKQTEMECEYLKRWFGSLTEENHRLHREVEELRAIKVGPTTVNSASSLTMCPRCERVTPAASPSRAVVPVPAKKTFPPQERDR
Source text: as §1, §2

ATHB17Δ113 [9] = molecular target: T9, ATHB17Δ113 (Arabidopsis thaliana, UniProt Q8S9N6 SEQ:1-162); test: SPR; Biacore 2000; kon 42.3e5, koff 880.6e-4; conditions: chain copies: 2 (homodimer, inferred)
T9 chain: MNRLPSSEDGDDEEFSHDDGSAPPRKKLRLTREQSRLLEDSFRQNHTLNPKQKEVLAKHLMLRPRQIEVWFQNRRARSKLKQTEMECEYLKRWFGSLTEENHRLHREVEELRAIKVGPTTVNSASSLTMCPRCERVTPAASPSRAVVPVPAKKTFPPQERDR
Source text: as §1, §2

ATHB17Δ113-W183F [10] = molecular target: T10, ATHB17Δ113-W183F (Arabidopsis thaliana, UniProt Q8S9N6 SEQ:1-162); test: SPR; asterisked in table; text says 11 uM, significantly reduced but not completely suppressed; conditions: chain copies: 2 (homodimer, inferred)
T10 chain: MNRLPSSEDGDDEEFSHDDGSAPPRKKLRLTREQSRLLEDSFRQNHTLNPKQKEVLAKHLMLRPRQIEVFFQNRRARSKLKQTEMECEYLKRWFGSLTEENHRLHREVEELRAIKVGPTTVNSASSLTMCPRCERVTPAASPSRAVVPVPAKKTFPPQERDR
Source text: as §1, §2

ATHB17Δ113-Δ194-224 [11] = molecular target: T11, ATHB17Δ113-Δ194-224 (Arabidopsis thaliana); test: SPR; leucine zipper deletion
T11 chain: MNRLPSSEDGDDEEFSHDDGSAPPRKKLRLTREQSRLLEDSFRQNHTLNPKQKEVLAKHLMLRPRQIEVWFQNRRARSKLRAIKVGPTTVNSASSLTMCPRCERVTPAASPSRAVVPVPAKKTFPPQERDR
Source text: as §1, §2

ATHB17Δ113-Δ138-195 [12] = molecular target: T12, ATHB17Δ113-Δ138-195 (Arabidopsis thaliana); test: SPR; homeodomain deletion
T12 chain: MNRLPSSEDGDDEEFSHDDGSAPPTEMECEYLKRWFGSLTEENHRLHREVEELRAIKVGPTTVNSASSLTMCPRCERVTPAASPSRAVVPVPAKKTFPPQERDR
Source text: as §1, §2

[13] = molecular target: T8, ATHB17Δ113-V182A-Q185A-N186A; test: SPR; loses interaction with BS1
Source text: as §1, §2

ATHB17Δ113-Δ138-195 [14] = molecular target: T12, ATHB17Δ113-Δ138-195; test: SPR; homeodomain deletion; similar results stated
Source text: as §1, §2

ATHB17Δ113 [15] = molecular target: T9, ATHB17Δ113; test: SPR; Biacore 2000; unit from p118; conditions: chain copies: 2 (homodimer, inferred)
ATHB17Δ113-R190K [16] = molecular target: T2, ATHB17Δ113-R190K; test: SPR; no significant change vs parent; conditions: chain copies: 2 (homodimer, inferred)
[17] = molecular target: T8, ATHB17Δ113-V182A-Q185A-N186A; test: SPR; random DNA
Source text: as §1, §2

[18] = molecular target: T3, ATHB17Δ113-C200A-C243S-C246S; test: SPR; random DNA
Source text: as §1, §2

ATHB17Δ113-C246S [19] = molecular target: T4, ATHB17Δ113-C246S; test: SPR; random DNA; conditions: chain copies: 2 (homodimer, inferred)
Source text: as §1, §2

ATHB17Δ113-W183F [20] = molecular target: T10, ATHB17Δ113-W183F; test: SPR; random DNA; conditions: chain copies: 2 (homodimer, inferred)
Source text: as §1, §2

ATHB17Δ113-C243S [21] = molecular target: T5, ATHB17Δ113-C243S; test: SPR; random DNA; conditions: chain copies: 2 (homodimer, inferred)
Source text: as §1, §2

ATHB17Δ113-C243S-C246S [22] = molecular target: T6, ATHB17Δ113-C243S-C246S; test: SPR; random DNA; conditions: chain copies: 2 (homodimer, inferred)
Source text: as §1, §2

ATHB17Δ113-Δ138-195 [23] = molecular target: T12, ATHB17Δ113-Δ138-195; test: SPR; random DNA
Source text: as §1, §2

ATHB17Δ113-F155L [24] = molecular target: T7, ATHB17Δ113-F155L; test: SPR; random DNA; conditions: chain copies: 2 (homodimer, inferred)
Source text: as §1, §2

[25] = molecular target: T1, ATHB17Δ113-T196A-L203A-L210A-L217A-L224A; test: SPR; random DNA
Source text: as §1, §2

ATHB17Δ113-Δ194-224 [26] = molecular target: T11, ATHB17Δ113-Δ194-224; test: SPR; random DNA
Source text: as §1, §2

ATHB17Δ113 [27] = molecular target: T9, ATHB17Δ113; test: SPR; random DNA did not interact with any protein tested; conditions: chain copies: 2 (homodimer, inferred)
Source text: as §1, §2

B1: Class II oligo (BS2) (dsDNA)
DNA 1: CAGACAATCATTGCGGC
DNA 2: GCCGCAATGATTGTCTG
[1]
  binding result: no binding
ATHB17Δ113-R190K [2]
  Kd: 68.2 nM
[3]
  binding result: no binding
ATHB17Δ113-C246S [4]
  Kd: 63.6 nM
ATHB17Δ113-C243S [5]
  Kd: 82.2 nM
ATHB17Δ113-C243S-C246S [6]
  Kd: 41.1 nM
ATHB17Δ113-F155L [7]
  Kd: 3630 nM
[8]
  binding result: no binding
ATHB17Δ113 [9]
  Kd: 20.4 nM
ATHB17Δ113-W183F [10]
  Kd: 11000 nM
ATHB17Δ113-Δ194-224 [11]
  Kd: 4800 nM
ATHB17Δ113-Δ138-195 [12]
  binding result: no binding

B2: Class I oligo (BS1) (dsDNA)
DNA 1: CAGACAATTATTGCGGC
DNA 2: GCCGCAATAATTGTCTG
[13]
  binding result: no binding
ATHB17Δ113-Δ138-195 [14]
  binding result: no binding
ATHB17Δ113 [15]
  Kd: 37.7 nM
ATHB17Δ113-R190K [16]
  Kd: 25.7 nM

B3: non consensus oligo (random DNA) (dsDNA)
DNA 1: CAGCTCAGTCTGACGGC
DNA 2: GCCGTCAGACTGAGCTG
[17]
  binding result: no binding
[18]
  binding result: no binding
ATHB17Δ113-C246S [19]
  binding result: no binding
ATHB17Δ113-W183F [20]
  binding result: no binding
ATHB17Δ113-C243S [21]
  binding result: no binding
ATHB17Δ113-C243S-C246S [22]
  binding result: no binding
ATHB17Δ113-Δ138-195 [23]
  binding result: no binding
ATHB17Δ113-F155L [24]
  binding result: no binding
[25]
  binding result: no binding
ATHB17Δ113-Δ194-224 [26]
  binding result: no binding
ATHB17Δ113 [27]
  binding result: no binding
